The assay addresses Acid-solubilized type I bovine collagen (bovine) (UniProt P02453). The assay is described as follows: SPR. (Surface plasmon resonance follows binding to a sensor surface in real time, without labels.)

This note sets out measurements from PMC9028814.

A word on the koff: it is the first-order rate constant of dissociation. Higher therefore signals a short-lived complex. What is called kon is the second-order rate constant of association. A low value points to slower complex formation.

Sequence of UniProt P02453 (P02453 162-1217, chain 1 of 2): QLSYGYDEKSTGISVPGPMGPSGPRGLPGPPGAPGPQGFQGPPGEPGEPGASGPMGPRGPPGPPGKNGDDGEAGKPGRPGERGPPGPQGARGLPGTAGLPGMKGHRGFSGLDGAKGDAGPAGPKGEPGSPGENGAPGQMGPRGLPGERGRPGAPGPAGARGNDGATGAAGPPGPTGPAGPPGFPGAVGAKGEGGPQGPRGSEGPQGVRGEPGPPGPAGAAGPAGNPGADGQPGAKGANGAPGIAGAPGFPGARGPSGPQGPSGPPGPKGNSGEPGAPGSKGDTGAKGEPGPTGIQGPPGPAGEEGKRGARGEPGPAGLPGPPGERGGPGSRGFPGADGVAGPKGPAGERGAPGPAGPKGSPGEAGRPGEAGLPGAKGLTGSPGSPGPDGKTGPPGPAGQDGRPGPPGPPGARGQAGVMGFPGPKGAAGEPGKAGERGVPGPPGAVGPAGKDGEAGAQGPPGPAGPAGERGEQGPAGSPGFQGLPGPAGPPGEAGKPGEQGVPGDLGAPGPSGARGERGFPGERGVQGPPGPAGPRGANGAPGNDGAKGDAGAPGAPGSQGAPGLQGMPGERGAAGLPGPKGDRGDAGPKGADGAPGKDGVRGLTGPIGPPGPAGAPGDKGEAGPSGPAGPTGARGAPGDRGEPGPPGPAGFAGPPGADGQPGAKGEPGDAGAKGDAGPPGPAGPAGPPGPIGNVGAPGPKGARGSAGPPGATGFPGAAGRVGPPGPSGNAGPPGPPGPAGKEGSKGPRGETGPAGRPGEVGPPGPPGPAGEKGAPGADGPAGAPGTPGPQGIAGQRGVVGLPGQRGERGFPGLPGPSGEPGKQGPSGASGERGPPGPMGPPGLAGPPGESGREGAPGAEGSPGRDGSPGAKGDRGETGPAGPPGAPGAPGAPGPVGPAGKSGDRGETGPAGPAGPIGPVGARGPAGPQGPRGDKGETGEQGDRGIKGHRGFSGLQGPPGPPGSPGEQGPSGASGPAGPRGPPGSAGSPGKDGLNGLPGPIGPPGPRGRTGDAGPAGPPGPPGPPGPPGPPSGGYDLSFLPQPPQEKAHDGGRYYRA
Sequence of UniProt P02453 (P02465 80-1117, chain 2 of 2, further chain): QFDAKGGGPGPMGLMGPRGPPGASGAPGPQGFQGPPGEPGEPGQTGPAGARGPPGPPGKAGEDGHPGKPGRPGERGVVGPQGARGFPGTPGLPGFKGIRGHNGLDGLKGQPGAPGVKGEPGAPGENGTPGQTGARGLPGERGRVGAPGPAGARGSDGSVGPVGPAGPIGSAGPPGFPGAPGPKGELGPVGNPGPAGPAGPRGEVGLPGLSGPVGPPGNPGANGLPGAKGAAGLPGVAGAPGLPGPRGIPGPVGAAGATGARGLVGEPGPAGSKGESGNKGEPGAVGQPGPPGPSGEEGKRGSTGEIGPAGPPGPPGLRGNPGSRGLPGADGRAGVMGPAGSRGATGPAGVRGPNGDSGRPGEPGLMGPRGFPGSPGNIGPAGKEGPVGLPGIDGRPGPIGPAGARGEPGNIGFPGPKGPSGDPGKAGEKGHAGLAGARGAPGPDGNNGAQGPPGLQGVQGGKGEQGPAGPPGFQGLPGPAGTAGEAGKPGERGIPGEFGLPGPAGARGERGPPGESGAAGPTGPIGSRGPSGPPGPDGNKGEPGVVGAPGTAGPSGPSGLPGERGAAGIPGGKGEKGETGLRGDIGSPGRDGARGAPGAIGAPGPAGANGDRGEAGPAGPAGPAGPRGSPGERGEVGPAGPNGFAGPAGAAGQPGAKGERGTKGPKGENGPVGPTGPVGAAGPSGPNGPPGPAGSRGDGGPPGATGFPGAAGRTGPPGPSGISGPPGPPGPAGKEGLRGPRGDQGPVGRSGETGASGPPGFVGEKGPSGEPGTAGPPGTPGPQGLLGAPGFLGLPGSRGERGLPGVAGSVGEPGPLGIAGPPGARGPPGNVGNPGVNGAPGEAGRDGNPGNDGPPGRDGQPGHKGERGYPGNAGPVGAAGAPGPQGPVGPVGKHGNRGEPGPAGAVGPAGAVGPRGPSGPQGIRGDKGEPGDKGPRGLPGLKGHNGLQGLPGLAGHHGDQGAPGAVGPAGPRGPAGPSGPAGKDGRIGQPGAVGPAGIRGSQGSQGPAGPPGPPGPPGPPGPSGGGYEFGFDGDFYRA

With “Human plasma von Willebrand factor (from UniProt P04275 764-2813) (natural protein)”, the koff stood at 0.00073 s⁻¹.
In the case of “Recombinant wild type von Willebrand factor (from UniProt P04275 764-2813) (natural protein)”, the off-rate (koff) is 0.000932 s⁻¹ and the kon amounted to 2.36e+06 M⁻¹ s⁻¹.
